Experimental findings from publication PMC5816707 are described below.

The target in one data set is T1, TIAL1 (Homo sapiens (cDNA from HEK293 cells), UniProt Q01085 1-375).
T1 sequence: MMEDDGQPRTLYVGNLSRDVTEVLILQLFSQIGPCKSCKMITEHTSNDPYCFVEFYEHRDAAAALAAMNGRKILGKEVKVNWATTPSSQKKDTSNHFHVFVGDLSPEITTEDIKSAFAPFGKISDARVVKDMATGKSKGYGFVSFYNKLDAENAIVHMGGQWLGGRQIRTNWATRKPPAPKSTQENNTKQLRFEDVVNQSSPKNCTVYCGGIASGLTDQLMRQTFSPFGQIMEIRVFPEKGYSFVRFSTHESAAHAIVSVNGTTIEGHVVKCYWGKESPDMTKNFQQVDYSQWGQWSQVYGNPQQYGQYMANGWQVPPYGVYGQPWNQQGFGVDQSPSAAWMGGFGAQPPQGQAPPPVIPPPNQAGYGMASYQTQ
Briefly: EMSA. On the technique in general: A gel shift assay detects complexes by their altered migration in electrophoresis.

The next data set concerns the target T2, TIA1 (Homo sapiens (cDNA from HEK293 cells), UniProt P31483 1-386).
T2 sequence: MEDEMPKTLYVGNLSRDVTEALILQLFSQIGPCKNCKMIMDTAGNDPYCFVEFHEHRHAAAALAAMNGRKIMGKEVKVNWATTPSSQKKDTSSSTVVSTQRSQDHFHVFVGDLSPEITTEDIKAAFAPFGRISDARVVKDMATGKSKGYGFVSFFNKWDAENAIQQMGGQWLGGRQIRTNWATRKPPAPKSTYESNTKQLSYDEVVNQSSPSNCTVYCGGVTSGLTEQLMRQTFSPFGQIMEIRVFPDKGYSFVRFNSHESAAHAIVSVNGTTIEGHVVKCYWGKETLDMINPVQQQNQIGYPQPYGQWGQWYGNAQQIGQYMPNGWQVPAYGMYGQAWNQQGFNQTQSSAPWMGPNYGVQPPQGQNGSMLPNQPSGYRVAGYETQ
Briefly: EMSA.

As to AAAAAAAAAAAAAAAAAA (ssRNA) [poly(A)18], the binding result with TIAL1 and in the data set with TIA1 was “no binding” each time.
